# Experimental data from PMC6739308 (Scientific Reports, 2019).
# B1: purified FH-SMG7 C-terminal fragment 815–1091aa (domain or fragment, UniProt Q92540-2 815-1091, looked up)
# chain: PSEVKVPEFYWDSSYSMADNRSVMAQQANIDRRGKRSPGVFRPEQDPVPRMPFEKSLLEKPSELMSHSSSFLSLTGFSLNQERYPNNSMFNEVYGKNLTSSSKAELSPSMAPQETSLYSLFEGTPWSPSLPASSDHSTPASQSPHSSNPSSLPSSPPTHNHNSVPFSNFGPIGTPDNRDRRTADRWKTDKPAMGGFGIDYLSATSSSESSWHQASTPSGTWTGHGPSMEDSSAVLMESLKSIWSSSMMHPGPSALEQLLMQQKQKQQRGQGTMNPPH
# notes: numbers count on a form of 1091 residues; source: purified; not shown: Flag, N-terminal, kept; HA, N-terminal, kept
# Target: T1, GST-p53 fusion protein (UniProt P04637 1-393)
# T1 construct: p53 fused to GST
# T1 sequence (P04637 whole entry, the tested form may be a part): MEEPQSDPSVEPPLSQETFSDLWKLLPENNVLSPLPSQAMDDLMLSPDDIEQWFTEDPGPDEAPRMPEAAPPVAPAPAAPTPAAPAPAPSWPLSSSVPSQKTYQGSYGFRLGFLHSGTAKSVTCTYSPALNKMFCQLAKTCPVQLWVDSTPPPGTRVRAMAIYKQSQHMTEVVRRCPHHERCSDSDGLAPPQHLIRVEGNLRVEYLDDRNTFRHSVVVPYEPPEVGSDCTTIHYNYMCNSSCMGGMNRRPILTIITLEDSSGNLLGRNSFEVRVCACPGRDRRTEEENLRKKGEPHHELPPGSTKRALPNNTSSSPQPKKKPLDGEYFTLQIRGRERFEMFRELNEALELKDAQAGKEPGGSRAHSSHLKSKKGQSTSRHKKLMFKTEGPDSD
# Experiment: pull-down; 10 μl GST beads bound with 2 μg of GST or GST-p53, purified Flag-tagged SMG7 proteins in solution; binding buffer BC100 with 1 μg/μl BSA, overnight at 4 °C, five washes, western blot
# Details: both partners purified
binder,measurement,value
B1,binding result,binds
